In the experiment the target is PCSK9Δhelix (human). The experiment in a line: phage spot ELISA.
PCSK9Δhelix (human), sequence (prodomain, as listed by the source mutant limits assumed, chain 1 of 2): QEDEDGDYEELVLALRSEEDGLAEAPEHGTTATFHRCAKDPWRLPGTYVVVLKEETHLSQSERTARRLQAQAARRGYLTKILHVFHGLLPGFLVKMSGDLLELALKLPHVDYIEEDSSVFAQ
PCSK9Δhelix (human), sequence (chain, as listed by the source mutant limits assumed, chain 2 of 2): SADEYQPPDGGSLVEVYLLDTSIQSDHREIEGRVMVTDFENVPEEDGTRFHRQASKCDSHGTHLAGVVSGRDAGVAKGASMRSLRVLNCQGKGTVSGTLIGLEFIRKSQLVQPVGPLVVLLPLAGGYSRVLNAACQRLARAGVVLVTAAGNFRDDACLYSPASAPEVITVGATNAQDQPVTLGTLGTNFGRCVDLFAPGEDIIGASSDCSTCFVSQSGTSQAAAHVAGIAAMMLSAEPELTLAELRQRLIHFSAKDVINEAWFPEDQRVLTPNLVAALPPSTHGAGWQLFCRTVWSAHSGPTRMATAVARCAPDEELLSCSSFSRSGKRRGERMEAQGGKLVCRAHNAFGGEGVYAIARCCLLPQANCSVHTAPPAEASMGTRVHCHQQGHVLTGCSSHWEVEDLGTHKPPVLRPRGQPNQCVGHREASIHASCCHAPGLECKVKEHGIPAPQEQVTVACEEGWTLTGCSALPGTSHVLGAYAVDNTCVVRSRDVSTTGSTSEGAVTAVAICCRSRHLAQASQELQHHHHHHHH

With TAFTSWEEYLDWVGSGCMEAWQCSLA [SEQ ID NO 337], the ELISA was 2.76 and the s/n ratio was determined as 1.49.
The corresponding values for SGDFIPWNLVRIGLLR [SEQ ID NO 385] are 0.657 and 5.01.
The molecule SGVCSDHYIGGKEVRC [SEQ ID NO 378] yielded an ELISA of 1.21 and a s/n of 1.85.

These data come from US20200283478A1.
